Holding throughout (assay): purified protein
What all share (conditions): potassium phosphate pH 7.5, 22-23 °C

Substrate in data set [1]: O=C(Nc1ccn([C@H]2C[C@H](O)[C@@H](CO)O2)c(=O)n1)c1ccccc1
Substrate in data set [2]: Nc1ccn([C@H]2C[C@H](O)[C@@H](CO)O2)c(=O)n1
Format: biochemical, uncultured bacterium.

Substrate in data set [3]: O=C(Nc1ccn([C@H]2C[C@H](O)[C@@H](CO)O2)c(=O)n1)c1ccccc1
Format: biochemical, uncultured bacterium.

Setting [4] is: substrate not given, inferred from the stated about twofold rise over wild type.

B1: CDA_F14 (uncultured bacterium; G81L) (protein)
chain: MNKEDLLKKAFEAMENAYAPYSNYHVGACALMKDGTTFLGANIENASYGATNCGERSAIFAAYSNGYRADDIEALAIVTDLDRVGAPCGICRQVLSELLNDNTPIYLSNGKETLEKTIDELLPMRFTKEDLL
Take B1: in data set [1], the Km entry is “(8.66 ± 3.8) × 10^-4 M” and the kcat entry is on record as “(7.89 ± 3.08) × 10^-1 s^-1”.

B2: CDA_F14 (uncultured bacterium; F126A) (protein)
chain: MNKEDLLKKAFEAMENAYAPYSNYHVGACALMKDGTTFLGANIENASYGATNCGERSAIFAAYSNGYRADDIEALAIVTDGDRVGAPCGICRQVLSELLNDNTPIYLSNGKETLEKTIDELLPMRATKEDLL
In the case of B2, the Km entry in data set [1] (setting [4]) is “(2.59 ± 0.73) × 10^−4 M”.

B3: CDA_F14 (uncultured bacterium) (protein)
chain: MNKEDLLKKAFEAMENAYAPYSNYHVGACALMKDGTTFLGANIENASYGATNCGERSAIFAAYSNGYRADDIEALAIVTDGDRVGAPCGICRQVLSELLNDNTPIYLSNGKETLEKTIDELLPMRFTKEDLL
notes: recombinant in E. coli HMS174 delta-pyrF delta-cdd, purified; homotetramer, one Zn per subunit; active site formed by three subunits
On to B3, for which, in data set [2], the Km entry is listed as “(1.95 ± 0.36) × 10^−4 M” and the kcat entry is on record as “(24.4 ± 1.71) × 10^−1 s^−1”. In data set [3], the Km result was “(1.15 ± 0.16) × 10^−4 M” and the kcat result is reported as “(5.04 ± 0.4) × 10^−1 s^−1”.

B4: CDA_F14 (uncultured bacterium; G81L/G85I) (protein)
chain: MNKEDLLKKAFEAMENAYAPYSNYHVGACALMKDGTTFLGANIENASYGATNCGERSAIFAAYSNGYRADDIEALAIVTDLDRVIAPCGICRQVLSELLNDNTPIYLSNGKETLEKTIDELLPMRFTKEDLL
For B4, in data set [1], the Km result was “(4.93 ± 1.3) × 10^-4 M” and the kcat entry is “(4.14 ± 0.88) × 10^-2 s^-1”.

B5: CDA_F14 (uncultured bacterium; F126W) (protein)
chain: MNKEDLLKKAFEAMENAYAPYSNYHVGACALMKDGTTFLGANIENASYGATNCGERSAIFAAYSNGYRADDIEALAIVTDGDRVGAPCGICRQVLSELLNDNTPIYLSNGKETLEKTIDELLPMRWTKEDLL
notes: as for B3
Take B5: the Km result in data set [3] (setting [4]) is “(2.11 ± 0.38) × 10^−4 M”.

The values above are taken from article PMC9897663.
